Measurements reported in patent US20060246470A1 (published 2006).

How the values were obtained:
[1] = target: T1, HER2, endogenous in MCF-7 cells (human, UniProt P04626 23-1255); assay: immunoprecipitation and immunoblot, MCF-7 cells
T1 construct: also called HER-2/neu
Method: In Panel B, immunoprecipitation of E or T treated MCF-7 cells was performed followed by immunoblot analysis.

GST-ER, P03372 = target: T2, GST-ER, P03372
T2 chain: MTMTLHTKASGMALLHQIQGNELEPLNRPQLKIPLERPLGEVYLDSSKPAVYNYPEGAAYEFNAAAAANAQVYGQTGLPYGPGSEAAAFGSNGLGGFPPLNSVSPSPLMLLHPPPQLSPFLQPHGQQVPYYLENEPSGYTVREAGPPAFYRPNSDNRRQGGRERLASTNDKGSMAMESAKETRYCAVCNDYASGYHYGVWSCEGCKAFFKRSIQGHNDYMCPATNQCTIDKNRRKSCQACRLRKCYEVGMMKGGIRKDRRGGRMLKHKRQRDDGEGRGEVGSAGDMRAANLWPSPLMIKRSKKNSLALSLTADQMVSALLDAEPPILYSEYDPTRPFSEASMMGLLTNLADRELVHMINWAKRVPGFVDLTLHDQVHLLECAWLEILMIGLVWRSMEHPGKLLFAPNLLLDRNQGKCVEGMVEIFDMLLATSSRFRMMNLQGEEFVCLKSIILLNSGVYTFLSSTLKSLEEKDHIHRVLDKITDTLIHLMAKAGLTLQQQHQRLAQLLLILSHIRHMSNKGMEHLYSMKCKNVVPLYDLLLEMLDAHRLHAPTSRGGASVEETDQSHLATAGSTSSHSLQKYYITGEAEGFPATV

GST-RhoGDI, P52565 = target: T3, GST-RhoGDI, P52565
T3 chain: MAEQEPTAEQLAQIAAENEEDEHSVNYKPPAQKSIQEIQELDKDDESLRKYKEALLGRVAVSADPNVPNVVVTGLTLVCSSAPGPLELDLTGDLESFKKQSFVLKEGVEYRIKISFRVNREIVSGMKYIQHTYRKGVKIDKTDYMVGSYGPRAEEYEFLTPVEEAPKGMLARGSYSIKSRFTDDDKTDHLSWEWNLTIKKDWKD

[2] = target: T4, GST-RhoGDI (aa:1-81), P52565
T4 chain: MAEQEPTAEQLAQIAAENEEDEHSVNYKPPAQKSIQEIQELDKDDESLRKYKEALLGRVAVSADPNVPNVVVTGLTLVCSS

[3] = target: T5, in vitro translated, 35S-incorporated ER (UniProt P03372 1-595, 35S-incorporated (in vitro translated)); assay: GST pull-down with or without E2 or Tamoxifen (FIG. 29)
T5 construct: also called ERα
T5 sequence (looked up): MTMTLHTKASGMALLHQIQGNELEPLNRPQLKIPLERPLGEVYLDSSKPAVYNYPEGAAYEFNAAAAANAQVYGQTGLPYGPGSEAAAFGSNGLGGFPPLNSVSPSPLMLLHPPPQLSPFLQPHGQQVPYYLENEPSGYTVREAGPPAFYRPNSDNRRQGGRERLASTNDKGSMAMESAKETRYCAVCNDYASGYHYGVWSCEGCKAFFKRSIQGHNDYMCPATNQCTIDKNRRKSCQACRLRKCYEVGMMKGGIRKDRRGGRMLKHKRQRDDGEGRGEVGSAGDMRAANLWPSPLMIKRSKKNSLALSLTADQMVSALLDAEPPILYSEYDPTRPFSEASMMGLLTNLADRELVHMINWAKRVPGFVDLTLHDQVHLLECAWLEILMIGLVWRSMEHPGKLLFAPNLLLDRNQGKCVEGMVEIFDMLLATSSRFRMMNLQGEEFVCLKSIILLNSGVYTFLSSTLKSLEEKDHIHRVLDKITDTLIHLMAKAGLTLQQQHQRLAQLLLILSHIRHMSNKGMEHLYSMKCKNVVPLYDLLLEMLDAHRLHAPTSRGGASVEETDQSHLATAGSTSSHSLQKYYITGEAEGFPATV

B1: EBP50 (ezrin binding protein 50), endogenous in MCF-7 cells (other, human, UniProt O14745 2-358, looked up)
chain: SADAAAGAPLPRLCCLEKGPNGYGFHLHGEKGKLGQYIRLVEPGSPAEKAGLLAGDRLVEVNGENVEKETHQQVVSRIRAALNAVRLLVVDPETDEQLQKLGVQVREELLRAQEAPGQAEPPAAAEVQGAGNENEPREADKSHPEQRELRPRLCTMKKGPSGYGFNLHSDKSKPGQFIRSVDPDSPAEASGLRAQDRIVEVNGVCMEGKQHGDVVSAIRAGGDETKLLVVDRETDEFFKKCRVIPSQEHLNGPLPVPFTNGEIQKENSREALAEAALESPRPALVRSASSDTSEELNSQDSPPKQDSTAPSSTSSSDPILDFNISLAMAKERAHQKRSSKRAPQMDWSKKNELFSNL
notes: also called NHE-RF; SLC9A3R1
B1: binds [1].

B2: GST-p300 HAT (protein)
chain: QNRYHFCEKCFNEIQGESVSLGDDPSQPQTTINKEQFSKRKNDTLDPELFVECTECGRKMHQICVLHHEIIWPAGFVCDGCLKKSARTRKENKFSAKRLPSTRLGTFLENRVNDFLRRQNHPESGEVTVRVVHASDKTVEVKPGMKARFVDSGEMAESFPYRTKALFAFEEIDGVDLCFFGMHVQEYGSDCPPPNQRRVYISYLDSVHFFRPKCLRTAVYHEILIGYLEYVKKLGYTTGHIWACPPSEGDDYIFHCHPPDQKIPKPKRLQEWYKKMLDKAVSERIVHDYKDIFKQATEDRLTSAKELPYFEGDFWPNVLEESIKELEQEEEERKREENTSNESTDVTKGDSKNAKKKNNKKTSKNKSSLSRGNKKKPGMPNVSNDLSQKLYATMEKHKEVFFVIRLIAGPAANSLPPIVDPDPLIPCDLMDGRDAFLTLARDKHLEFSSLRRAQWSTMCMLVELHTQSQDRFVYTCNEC
B2 was tested, and the “competitive in vitro acetylation assay” value (GST-ER, P03372) was “Purified GST-ER was acetylated by GST-p300HAT in the presence of increasing amount of GST-RhoGDI”, the “in vitro acetylation assay (14C-acetyl-CoA, SDS-PAGE, autoradiography)” value (GST-RhoGDI, P52565) was “RhoGDI, like ERα, is acetylated by p300” and the “in vitro acetylation assay (14C-acetyl-CoA, SDS-PAGE, autoradiography)” value [2] was “The result indicates that N-terminal of RhoGDI contains acetylation site(s)”.

B3: in vitro translated RhoGDI (other, UniProt P52565 1-204, looked up)
chain: MAEQEPTAEQLAQIAAENEEDEHSVNYKPPAQKSIQEIQELDKDDESLRKYKEALLGRVAVSADPNVPNVVVTGLTLVCSSAPGPLELDLTGDLESFKKQSFVLKEGVEYRIKISFRVNREIVSGMKYIQHTYRKGVKIDKTDYMVGSYGPRAEEYEFLTPVEEAPKGMLARGSYSIKSRFTDDDKTDHLSWEWNLTIKKDWKD
B3: no binding [3].
